CN113121686A (MABWELL SHANGHAI BIOTECHNOLOGY CO LTD, dated 2021)
Residue numbers refer to the chain shown, from its start. Blank lines part the entries; values can stand above or below the binder they belong to.

Key:
人PD-L1-His重组蛋白 [1] = biological target: T1, 人PD-L1-His重组蛋白 (human, UniProt Q9NZQ7 19-238); experiment: BLI (Fortebio Octet QKe), antibody captured on AHC probe, human PD-L1-His 100 nM, 1:1 Langmuir fit
T1 construct: range 19-238; also called 人PD-L1胞外区结构域重组蛋白; 重组人PD-L1; not shown: His tag

人PD-L1-His重组蛋白 [2] = biological target: T1, 人PD-L1-His重组蛋白; experiment: BLI (Fortebio Octet QKe), antibody captured on AHC probe, human PD-L1-His 50 nM and 20 nM, 1:1 Langmuir fit
B7H3-His = biological target: T2, B7H3-His (human, UniProt Q5ZPR3 29-239); experiment: ELISA; protein coated at 2 ug/mL
T2 construct: range 29-239; not shown: His tag
T2 sequence (looked up): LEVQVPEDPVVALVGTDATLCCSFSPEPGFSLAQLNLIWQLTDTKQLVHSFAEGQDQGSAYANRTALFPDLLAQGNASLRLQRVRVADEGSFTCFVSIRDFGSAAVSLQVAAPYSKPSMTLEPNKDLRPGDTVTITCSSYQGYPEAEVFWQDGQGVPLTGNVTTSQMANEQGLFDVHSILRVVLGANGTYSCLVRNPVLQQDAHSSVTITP

CTLA4-His = biological target: T3, CTLA4-His (human, UniProt P16410 36-162); experiment: ELISA; protein coated at 2 ug/mL
T3 construct: Bought protein; also called Cat:11159-H08H; not shown: His tag
T3 sequence (looked up): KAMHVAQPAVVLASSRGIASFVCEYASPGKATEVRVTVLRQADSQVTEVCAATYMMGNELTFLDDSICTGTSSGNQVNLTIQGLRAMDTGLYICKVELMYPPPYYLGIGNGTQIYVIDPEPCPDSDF

PD-L2-hFc = biological target: T4, PD-L2-hFc (human, UniProt Q9BQ51 20-220); experiment: ELISA; protein coated at 2 ug/mL
T4 construct: range 20-220; not shown: human Fc (hFc)
T4 sequence (looked up): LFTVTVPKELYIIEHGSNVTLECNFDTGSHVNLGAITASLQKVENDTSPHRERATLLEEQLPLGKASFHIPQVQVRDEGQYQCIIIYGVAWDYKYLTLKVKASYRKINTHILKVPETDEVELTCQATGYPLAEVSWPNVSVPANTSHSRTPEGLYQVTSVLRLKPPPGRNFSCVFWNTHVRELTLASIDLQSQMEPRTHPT

重组人CD28 = biological target: T5, 重组人CD28 (human, UniProt P10747 19-152); experiment: ELISA; protein coated at 2 ug/mL
T5 construct: Bought protein; also called Cat:11524-HCCH

人PD-L1全长(细胞表面表达) [3] = biological target: T6, 人PD-L1全长(细胞表面表达) (human, UniProt Q9NZQ7 19-290); experiment: cell-based or functional assay
人PD-L1/mFc重组蛋白 = biological target: T7, 人PD-L1/mFc重组蛋白 (human, UniProt Q9NZQ7 19-238); experiment: competition ELISA; PD-1-hFc coated, PD-L1-mFc 1 ug/mL, antibody titrated from 4.5 ug/mL
T7 construct: range 19-238; not shown: mouse Fc (mFc)

人PD-L1全长(细胞表面表达) [4] = biological target: T6, 人PD-L1全长(细胞表面表达); experiment: flow cytometry (MFI) on CHO-PD-L1-CD3L cells, antibody titrated from 30 ug/mL
人PD-L1-His重组蛋白 [5] = biological target: T1, 人PD-L1-His重组蛋白; experiment: BLI (Fortebio Octet QKe), antibody captured on AHC probe, human PD-L1-His 60 nM, 1:1 Langmuir fit

T1 sequence (Q9NZQ7 19-238 limits assumed): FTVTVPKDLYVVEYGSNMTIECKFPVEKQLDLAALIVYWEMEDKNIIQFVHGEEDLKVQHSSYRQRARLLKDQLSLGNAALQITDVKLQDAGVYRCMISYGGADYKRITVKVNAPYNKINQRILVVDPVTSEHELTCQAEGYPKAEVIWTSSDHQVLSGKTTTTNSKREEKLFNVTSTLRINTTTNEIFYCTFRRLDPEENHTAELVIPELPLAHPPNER
T5 sequence (P10747 19-152 limits assumed): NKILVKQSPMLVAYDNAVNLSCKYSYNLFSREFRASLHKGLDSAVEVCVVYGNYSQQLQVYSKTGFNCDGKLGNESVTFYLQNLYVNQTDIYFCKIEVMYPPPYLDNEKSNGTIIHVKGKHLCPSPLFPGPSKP
T7 sequence (Q9NZQ7 19-238 limits assumed): as the sequence (Q9NZQ7 19-238 limits assumed) above

B3: H182-MUT4 (antibody, human IgG1, kappa, V domains shown)
VH: EVQLVQSGAEVKKPGATVKISCKVSGFNIKDIYMHWVQQAPGKGLEWMGRIDPANANTKYDPKFQDRVTITADTSTNTAYMELSSLRSEDTAVYYCASGQLGPLGFDYWGQGTTVTVSS
VL: DIQMTQSPSSLSASVGDRVTITCRASQDISNYLNWYQQKPGKAPKLLLYYTSRLHSGVPSRFSGSGSGTDYTLTISSLQPEDFATYFCQQGAGRPYTFGGGTKVEIKR
notes: also called h182-LCDR3-4+h182-HCDR2-3
- ADCC EC50 (MDA-MB-231 target cells, NK92 effector cells, calcein release) (人PD-L1全长(细胞表面表达) [3]): 0.96 ng/mL
- IC50 (人PD-L1/mFc重组蛋白): 6.24 nM
- EC50 (人PD-L1全长(细胞表面表达) [4]): 0.658 nM
- Kd (人PD-L1-His重组蛋白 [5]): 0.465 nM

B4: 182-4 (antibody, V domains shown)
VH: B3 VH with A56G, N77D, S98T
VL: B3 VL with F87Y, A92N, G93T, R94L
- Kd (人PD-L1-His重组蛋白 [1]): 8.19 nM

B6: 182-5 (antibody, V domains shown)
VH: B3 VH with A56G
VL: B3 VL with F87Y, A92N, G93T, R94L
- Kd (人PD-L1-His重组蛋白 [1]): 3.43 nM

B7: 182-1 (antibody, V domains shown)
VH: B3 VH with A56G, N77D, S98T
VL: DIQMTQTTSSLSASLGDRVTISCRASQDISNYLNWYQQKPDGTVKLLIYYTSRLHSGVPSRFSGSGSGTDYSLTISNLEQEDIATYFCQQGNTLPYTFGGGTKLEIKR
- Kd (人PD-L1-His重组蛋白 [1]): 5.82 nM

B8: 182-7 (antibody, V domains shown)
VH: B3 VH with A56G, N77D, S98T
VL: B3 VL with A92N, G93T, R94L
- Kd (人PD-L1-His重组蛋白 [1]): 5.68 nM

B9: 182-3 (antibody, human IgG1, V domains shown)
VH: EVQLQQSGAELVKPGASVKLSCTVSGFNIKDIYMHWLKQRPEQGLEWIGRIDPANGNTKYDPKFQDKATMIADTSSNTAYLQLSSLTSEDTAVYYCASGQLGPLGFDYWGQGTTLTVSS
VL: B3 VL with F87Y, A92N, G93T, R94L
notes: also called h182L1 + Ch182H
- Kd (人PD-L1-His重组蛋白 [1]): 4.77 nM

B10: 182-2 (antibody, V domains shown)
VH: B3 VH with A56G
VL: B7 VL
- Kd (人PD-L1-His重组蛋白 [1]): 1.93 nM

B11: 182-6 (antibody, human IgG1, V domains shown)
VH: B9 VH
VL: B3 VL with A92N, G93T, R94L
notes: also called h182L2 + Ch182H
- Kd (人PD-L1-His重组蛋白 [1]): 4.64 nM

Next, values leading:

- Kd (人PD-L1-His重组蛋白 [1]): 2.14 nM
- Kd (人PD-L1-His重组蛋白 [2]): ~2.02 nM
B1: 嵌合抗体Ch182 (antibody, human IgG1, V domains shown)
VH: B9 VH
VL: DIQMTQTTSSLSASLGDRVTISCRASQDISNYLNWYQQKPDGTVKLLIYYTSRLHSGVPSRFSGSGSGTDYSLTISNLEQEDIATYFCQQGNTLPYTFGGGTKLEIK

- binding result (B7H3-His): no binding (tested: 1ug/ml)
- binding result (CTLA4-His): no binding (tested: 1ug/ml)
- binding result (PD-L2-hFc): no binding (tested: 1ug/ml)
- binding result (重组人CD28): no binding (tested: 1ug/ml)
B2: 182鼠抗体 (antibody, V domains shown)
VH: B9 VH
VL: B1 VL
notes: Tested as hybridoma supernatant or as purified mouse antibody; also called m182

- Kd (人PD-L1-His重组蛋白 [1]): 3.64 nM
B5: h182 (antibody, V domains shown)
VH: B3 VH with A56G
VL: B3 VL with A92N, G93T, R94L
